Measured values reported in PMC3741918 (FEBS Open Bio, 2013).

Tests used:
[1] = biological target: human frataxin variant hFXN56–210 (human) (UniProt Q16595); assay: SEC
[2] = biological target: T1, human frataxin variant hFXN56–210 (human, UniProt Q16595 56-210); assay: aggregation assay
T1 sequence (looked up): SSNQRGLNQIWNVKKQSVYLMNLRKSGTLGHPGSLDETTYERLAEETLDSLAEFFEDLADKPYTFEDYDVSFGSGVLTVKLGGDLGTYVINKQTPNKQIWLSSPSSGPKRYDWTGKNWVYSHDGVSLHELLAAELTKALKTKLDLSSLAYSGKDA

**Q.** With “human frataxin variant hFXN56–210 (from UniProt Q16595 56-210) (domain or fragment)” as the molecule, how does the percent of the protein in the oligomeric state [1] read?
**A.** 60%

B1: peptide hFXN56–81 (peptide)
peptide: SSNQRGLNQIWNVKKQSVYLMNLRKS
**Q.** Does B1 bind [2]?
**A.** binds
